The text below walks through data of patent US20040058394A1 (Biogen, published 2004).

B1: L2/V93A H2 (VL#2 with the V93A variant of VH#2) (antibody, V domains shown)
VH: EVQLVESGGGLVKPGGSLRLSCAASGFTFSDYYMYWFRQAPGKGLEWVATISDGGSYTYYPDSVKGRFTISRDNAKNSLYLQMSSLRAEDTAVYYCAREENGNFYYFDYWGQGTTVTVSS
VL: DIQMTQSPSSLSASVGDRVTITCKAGQDIKSYLSWYQQKPWKAPKILIYYATRLADGVPSRFSGSGSGTDYTLTISSLQPEDFATYYCLQHGESPWTFGGGTKLEIK
notes: Human IgG1 / kappa constant regions; also called pAND072/pAND090
B2: chimeric CBE11 (chCBE11) (antibody, V domains shown)
VH: B1 VH with R19K, A40T, G42E, G44R, S78N, R87K, A88S, V93M, A97V
VL: DIKMTQSPSSMYASLGERVTITCKAGQDIKSYLSWYQQKPWKSPKILIYYATRLADGVPSRFSGSGSGQDYSLTISSLESDDTATYYCLQHGESPWTFGGGTKLEIK
notes: the latter is followed; also called pEAG982/pEAG983
B3: huCBE11 #4 (VL#3 with VH#4) (antibody, human IgG1, V domains shown)
VH: B1 VH
VL: DIQMTQSPSSLSASVGDRVTITCKAGQDIKSYLSWYQQKPGKAPKLLIYYATRLADGVPSRFSGSGSGTDYTLTISSLQPEDFATYYCLQHGESPWTFGGGTKLEIKR
notes: Full mature chains with human IgG1 and kappa constant domains; also called hCBE11; pAND076/pAND090
B4: L2/H3 (VL#2 with VH#3) (antibody, human IgG1, V domains shown)
VH: B1 VH with F37V
VL: B1 VL
notes: Mix and match co-transfection; Human IgG1 / kappa constant regions; also called pAND072/pAND077
B5: huCBE11 #3 (VL#3 with VH#3) (antibody, human IgG1, V domains shown)
VH: B1 VH with F37V
VL: B1 VL with W41G, I46L
notes: also called pAND076/pAND077
B6: huCBE11 #1 (VL#1 with VH#1) (antibody, human IgG1, V domains shown)
VH: B1 VH with A40T, V93M, A97V
VL: B1 VL with Q3K, T69Q
notes: also called pAND068/pAND069
B7: L3/H2 (VL#3 with VH#2) (antibody, human IgG1, V domains shown)
VH: B1 VH with A97V
VL: B1 VL with W41G, I46L
notes: Mix and match co-transfection; Human IgG1 / kappa constant regions; also called pAND076/pAND073
B8: huCBE11 #2 (VL#2 with VH#2) (antibody, human IgG1, V domains shown)
VH: B1 VH with A97V
VL: B1 VL
notes: also called huCBE#2; pAND072/pAND073

Changes are numbered by the printed parent chain. In names and notes the source's numbering stands.

The target in the first assay is T1, lymphotoxin beta receptor (LT-β-R) (human, UniProt P36941 31-435).
T1 construct: whole, on cells; also called LT-β receptor
T1 sequence (P36941 31-435): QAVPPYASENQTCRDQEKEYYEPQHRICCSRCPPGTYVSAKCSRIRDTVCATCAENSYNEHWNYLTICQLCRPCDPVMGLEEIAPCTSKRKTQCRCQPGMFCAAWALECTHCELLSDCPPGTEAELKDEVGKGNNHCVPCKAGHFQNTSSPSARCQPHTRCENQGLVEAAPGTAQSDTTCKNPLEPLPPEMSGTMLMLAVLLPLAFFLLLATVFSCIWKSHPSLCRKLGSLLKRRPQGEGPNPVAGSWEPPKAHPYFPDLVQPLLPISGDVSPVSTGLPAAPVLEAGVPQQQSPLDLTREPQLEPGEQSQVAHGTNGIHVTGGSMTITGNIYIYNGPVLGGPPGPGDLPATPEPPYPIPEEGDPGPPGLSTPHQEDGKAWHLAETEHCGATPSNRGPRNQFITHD
Kind of assay: FACS staining of HT-29 cells with conditioned medium, PE anti-human IgG. The protocol: Expression vectors were co-transfected into 293-EBNA cells and transfected cells were tested for antibody secretion and specificity (empty vector-transfected cells served as negative control). […] To examine the individual contributions of each of these changes, new heavy chain expression vectors were constructed. Plasmid pAND089, the F37V variant of VH#2, was made by subcloning the 311 bp NotI-PstI fragment from pAND075, the 126 bp PstI-HindIII fragment from pAND071, and the 1.21 kb HindIII-NotI fragment from the plasmid pEAG964 into the NotI site of the pCEP4 EBV expression vector-derived plasmid pCH269. Plasmid pAND090, the V93A variant of VH#2, was made by subcloning the 311 bp NotI-PstI fragment from pAND071, the 126 bp PstI-HindIII fragment from pAND075, and the 1.21 kb HindIII-NotI fragment from the plasmid pEAG964 into the NotI site of the pCEP4 EBV expression vector-derived plasmid pCH269. These H2/H3 chimeric heavy chains were co-transfected into 293-EBNA cells with VL#2 or VL#3. […] The pAND076 and pAND090 pairing was designated huCBE11 #4 (Table 1 supra).
Conditioned medium from transiently transfected cells was used to stain HT-29 cells by incubating for 30 min on ice, washing cells twice with FACS buffer (PBS with 5% FBS and 0.05% sodium azide), staining with PE-conjugated anti-human IgG (H+L), Jackson ImmunoResearch Laboratories, Inc., for 30 min on ice in FACS buffer, washing cells twice with FACS buffer, and resuspending in FACS buffer for analysis.
Regarding B1, the “Relative MFI” value was 0.75 MFI normalized to chCBE11.
The same measure, in the same setting: to B2 belongs 1 MFI normalized to chCBE11; to B3, 1 MFI normalized to chCBE11; to B4, 0.42 MFI normalized to chCBE11.
On the same count and under the same terms, under B5 stands 0.62 MFI normalized to chCBE11; under B6, 1 MFI normalized to chCBE11; under B7, 1 MFI normalized to chCBE11.
Still for that read-out and setting: under B8 stands 1 MFI normalized to chCBE11.

For a further assay, the target named is T1, lymphotoxin beta receptor (LT-β-R). In words: FACS titration on HT-29 cells, 4°C, non-specific binding subtracted, four parameter fit (functional affinity). The protocol:
HuCBE11 #4 anti-LTβR antibody and humanized anti-CD40L as a negative control were diluted in PBS and a 12 point serial 1:4 dilution was made to a final concentration range of 2.37 pM-10 μM. 100 μL cell suspension and 100 μL antibody dilution were added together to each well of a 96 well V-bottom microtiter plate. The antibody and the cells were incubated at 4° C. for 2 hours. The plate was centrifuiged at 1000 rpm (110×g) for 10 minutes at 4° C. The supernatant was discarded and the cell pellet was washed with cold PBS six times.
Goat-anti human IgG-phycoerythrin conjugate (Jackson Immunoresearch) was diluted 1:100 in PBS and 200 μL was added to each well. The cells were incubated with this secondary antibody for one hour at 4° C., centrifuged as described above, and washed once in cold PBS. The cells were then transferred to polystyrene test tubes. Fluorescence intensity was measured on a FACS Calibur instrument (Beckton Dickinson).
These specific fluorescence intensity values were then plotted against huCBE11 #4 concentrations on a log scale. The resulting curve is bell shaped and symmetrical, and reflects self-inhibition of the antibody binding at high concentrations. The left half of this curve was fit to a four parameter equation to find the functional affinity of the antibody. The resulting curve fit gives an EC₅₀ value of 60 pM for the huCBE11 #4 binding to HT-29 cells.
For orientation: EC50 means the concentration that produces a half-maximal response. B3: the EC50 is 0.06 nM.
